Laboratory results taken from patent US7183387 (Genentech, dated 2007).

T1: human FcγRIIA-Arg131 α subunit extracellular domain-His6-GST fusion (human, UniProt P12318 34-217)
T1 construct: extracellular domain; also called FcγRIIA-R131; not shown: glutathione S transferase (GST)
T1 sequence: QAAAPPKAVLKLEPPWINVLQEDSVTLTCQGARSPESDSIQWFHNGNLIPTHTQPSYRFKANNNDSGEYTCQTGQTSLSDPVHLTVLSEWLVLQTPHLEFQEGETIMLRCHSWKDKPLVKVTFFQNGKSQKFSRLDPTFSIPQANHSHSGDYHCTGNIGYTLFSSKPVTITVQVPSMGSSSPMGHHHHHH

T2: human FcγRIIB α subunit extracellular domain-His6-GST fusion (human, UniProt P31994 43-217)
T2 construct: extracellular domain; also called CD32; not shown: glutathione S transferase (GST)
T2 sequence: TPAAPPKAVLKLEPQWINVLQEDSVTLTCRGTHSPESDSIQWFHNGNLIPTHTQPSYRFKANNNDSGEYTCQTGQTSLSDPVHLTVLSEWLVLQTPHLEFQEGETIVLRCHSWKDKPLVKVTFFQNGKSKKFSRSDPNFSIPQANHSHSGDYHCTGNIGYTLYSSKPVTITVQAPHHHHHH

B1: anti-IgE E27 IgG1 Asp280Ala (antibody)
heavy: not shown
light: DIQLTQSPSSLSASVGDRVTITCRASKPVDGEGDSYLNWYQQKPGKAPKLLIYAASYLESGVPSRFSGSGSGTDFTLTISSLQPEDFATYYCQQSHEDPYTFGQGTKVEIKRTVAAPSVFIFPPSDEQLKSGTASVVCLLNNFYPREAKVQWKVDNALQSGNSQESVTEQDSKDSTYSLSSTLTLSKADYEKHKVYACEVTHQGLSSPVTKSFNRGEC
B2: anti-IgE E27 IgG1 Ile253Ala (antibody)
heavy: not shown
light: B1 light
B3: anti-IgE E27 IgG1 Lys290Ala (antibody)
heavy: not shown
light: B1 light
notes: also called K290(307)A
B4: anti-IgE E27 IgG1 Leu309Ala (antibody)
heavy: not shown
light: B1 light
B5: anti-IgE E27 IgG1 Gln311Ala (antibody)
heavy: not shown
light: B1 light
B6: anti-IgE E27 IgG1 Pro238Ala (antibody)
heavy: not shown
light: B1 light
B7: anti-IgE E27 IgG1 Glu272Ala (antibody)
heavy: not shown
light: B1 light
B8: anti-IgE E27 IgG1 Lys288Ala (antibody)
heavy: not shown
light: B1 light
B9: anti-IgE E27 IgG1 Ser298Ala (antibody)
heavy: not shown
light: B1 light
notes: also called G36 S298A
B10: anti-IgE E27 IgG1 Glu269Ala (antibody)
heavy: not shown
light: B1 light
notes: also called E269(282)A
B11: anti-IgE E27 IgG1 Ser239Ala (antibody)
heavy: not shown
light: B1 light
B12: anti-IgE E27 IgG1 Lys334Ala (antibody)
heavy: not shown
light: B1 light
notes: also called G55 K334A
B13: anti-IgE E27 IgG1 Lys326Ala (antibody)
heavy: not shown
light: B1 light
B14: anti-IgE E27 IgG1 Glu430Ala (antibody)
heavy: not shown
light: B1 light
B15: anti-IgE E27 IgG1 Asp312Ala (antibody)
heavy: not shown
light: B1 light
B16: anti-IgE E27 IgG1 Lys338Ala (antibody)
heavy: not shown
light: B1 light
B17: anti-IgE E27 IgG1 Gln295Ala (antibody)
heavy: not shown
light: B1 light
notes: also called Q295(312)A
B18: anti-IgE E27 IgG1 His433Ala (antibody)
heavy: not shown
light: B1 light
B19: anti-IgE E27 IgG1 Lys317Ala (antibody)
heavy: not shown
light: B1 light
notes: also called Lys317A1a
B20: anti-IgE E27 IgG1 His285Ala (antibody)
heavy: not shown
light: B1 light
B21: anti-IgE E27 IgG1 Ser337Ala (antibody)
heavy: not shown
light: B1 light
B22: anti-IgE E27 IgG1 Glu258Ala (antibody)
heavy: not shown
light: B1 light
B23: anti-IgE E27 IgG1 Ser267Ala (antibody)
heavy: not shown
light: B1 light
notes: also called G15 S267A
B24: anti-IgE E27 IgG1 Gln362Ala (antibody)
heavy: not shown
light: B1 light
notes: also called Gln362A1a
B25: anti-IgE E27 IgG1 Lys360Ala (antibody)
heavy: not shown
light: B1 light
B26: anti-IgE E27 IgG1 Glu382Ala (antibody)
heavy: not shown
light: B1 light
B27: anti-IgE E27 IgG1 Glu333Ala (antibody)
heavy: not shown
light: B1 light
notes: also called G54 E333A
B28: anti-IgE E27 IgG1 Asp376Ala (antibody)
heavy: not shown
light: B1 light
B29: anti-IgE E27 IgG1 His268Ala (antibody)
heavy: not shown
light: B1 light
notes: also called H281A (268 in EU numbering); G16 H268A

Target: T3, human neonatal Fc receptor (FcRn), biotinylated (human, UniProt P55899 24-297; P61769 21-119, biotinylated (biotin-X-NHS))
T3 construct: captured on streptavidin plates
Experiment: FcRn ELISA, pH 6.0;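 note: Streptavidin-captured FcRn plates, IgG variants titrated 2 h at pH 6.0, peroxidase anti-human IgG read at 450 nm, variant over standard concentration at the standard curve mid-point absorbance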

T3 sequence (P55899 24-297 limits assumed, chain 1 of 2): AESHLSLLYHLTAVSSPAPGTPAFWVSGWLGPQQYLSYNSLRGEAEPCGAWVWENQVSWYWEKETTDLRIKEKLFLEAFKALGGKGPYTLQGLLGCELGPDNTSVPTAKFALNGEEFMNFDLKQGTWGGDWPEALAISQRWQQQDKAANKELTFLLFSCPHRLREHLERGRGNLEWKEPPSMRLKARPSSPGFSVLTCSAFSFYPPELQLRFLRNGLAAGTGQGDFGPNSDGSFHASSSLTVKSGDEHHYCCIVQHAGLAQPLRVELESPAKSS
T3 sequence (P61769 21-119 limits assumed, chain 2 of 2): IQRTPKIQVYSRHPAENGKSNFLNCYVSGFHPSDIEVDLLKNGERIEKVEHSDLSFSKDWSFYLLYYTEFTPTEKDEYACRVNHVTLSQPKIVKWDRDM

Binder | ratio to native IgG1
B1 | 0.82 ratio
B2 | 0.1 ratio
B3 | 0.79 ratio
B4 | 0.63 ratio
B5 | 1.62 ratio
B6 | 1.49 ratio
B7 | 1.34 ratio
B8 | 0.38 ratio
B9 | 0.8 ratio
B10 | 1.05 ratio
B11 | 1.06 ratio
B12 | 1.05 ratio
B13 | 1.03 ratio
B14 | 0.93 ratio
B15 | 1.5 ratio
B16 | 1.14 ratio
B17 | 0.79 ratio
B18 | 0.41 ratio
B19 | 1.44 ratio
B20 | 0.85 ratio
B21 | 1.03 ratio
B22 | 1.18 ratio
B23 | 1.08 ratio
B24 | 1.25 ratio
B25 | 1.3 ratio
B26 | 1.51 ratio
B27 | 1.03 ratio
B28 | 1.45 ratio
B29 | 1.02 ratio

Target: T1, human FcγRIIA-Arg131 α subunit …
Experiment: hexamer ELISA

Binder | ratio to native IgG1
B1 | 1.34 ratio
B2 | 1.14 ratio
B3 | 1.3 ratio
B4 | 1.13 ratio
B5 | 1.11 ratio
B6 | 0.38 ratio
B7 | 1.23 ratio
B8 | 1.15 ratio
B9 | 0.4 ratio
B10 | 0.65 ratio
B11 | 0.73 ratio
B12 | 1.01 ratio
B13 | 1.23 ratio
B14 | 1.24 ratio
B15 | 1.2 ratio
B16 | 0.78 ratio
B17 | 0.62 ratio
B18 | 0.92 ratio
B19 | 1.13 ratio
B20 | 1.26 ratio
B21 | 1.22 ratio
B22 | 1.33 ratio
B23 | 1.52 ratio
B24 | 1.03 ratio
B25 | 1.12 ratio
B26 | 0.95 ratio
B27 | 0.92 ratio
B28 | 0.8 ratio
B29 | 1.21 ratio

Target: T2, human FcγRIIB α subunit extracellular …
Experiment: hexamer ELISA

Binder | ratio to native IgG1
B1 | 1.6 ratio
B2 | 1.18 ratio
B3 | 1.38 ratio
B4 | 1.26 ratio
B5 | 1.19 ratio
B6 | 0.36 ratio
B7 | 1.53 ratio
B8 | 1.14 ratio
B9 | 0.23 ratio
B10 | 0.75 ratio
B11 | 0.76 ratio
B12 | 0.9 ratio
B13 | 1.41 ratio
B14 | 1.28 ratio
B15 | 1.19 ratio
B16 | 0.63 ratio
B17 | 0.5 ratio
B18 | 0.79 ratio
B19 | 1.18 ratio
B20 | 1.23 ratio
B21 | 1.26 ratio
B22 | 1.65 ratio
B23 | 1.84 ratio
B24 | 1.02 ratio
B25 | 1.12 ratio
B26 | 0.84 ratio
B27 | 0.76 ratio
B28 | 0.68 ratio
B29 | 1.44 ratio

Target: T4, human FcγRIIIA-Phe158 α subunit extracellular domain-His6-GST fusion (human, UniProt P08637 17-208)
T4 construct: extracellular domain; also called FcγRIIIA-F158; CD16; not shown: glutathione S transferase (GST)
Experiment: hexamer ELISA

T4 sequence (P08637 other isoform, or with tags, fused parts or gaps): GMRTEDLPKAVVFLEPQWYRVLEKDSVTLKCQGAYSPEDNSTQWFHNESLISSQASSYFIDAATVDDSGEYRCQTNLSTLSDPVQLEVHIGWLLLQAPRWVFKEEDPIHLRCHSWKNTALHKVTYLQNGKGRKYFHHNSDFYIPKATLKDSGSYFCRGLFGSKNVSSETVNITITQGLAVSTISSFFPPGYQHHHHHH

Binder | ratio to native IgG1
B1 | 1.09 ratio
B2 | 1.08 ratio
B3 | 1.31 ratio
B4 | 1.07 ratio
B5 | 0.92 ratio
B6 | 0.07 ratio
B7 | 0.8 ratio
B8 | 1.06 ratio
B9 | 1.34 ratio
B10 | 0.45 ratio
B11 | 0.26 ratio
B12 | 1.39 ratio
B13 | 1.23 ratio
B14 | 1.2 ratio
B15 | 1.23 ratio
B16 | 0.15 ratio
B17 | 0.25 ratio
B18 | 1.02 ratio
B19 | 1.1 ratio
B20 | 0.87 ratio
B21 | 0.94 ratio
B22 | 1.12 ratio
B23 | 1.05 ratio
B24 | 1.02 ratio
B25 | 1.23 ratio
B26 | 0.76 ratio
B27 | 1.27 ratio
B28 | 0.55 ratio
B29 | 0.54 ratio

Target: T5, human FcγRIA α subunit extracellular domain-His6-GST fusion (human, UniProt P12314 16-292)
T5 construct: extracellular domain; also called GST-FcγRIA; CD64; not shown: glutathione S transferase (GST)
Experiment: FcγRI ELISA and THP-1 cells, averaged

T5 sequence (P12314 other isoform, or with tags, fused parts or gaps): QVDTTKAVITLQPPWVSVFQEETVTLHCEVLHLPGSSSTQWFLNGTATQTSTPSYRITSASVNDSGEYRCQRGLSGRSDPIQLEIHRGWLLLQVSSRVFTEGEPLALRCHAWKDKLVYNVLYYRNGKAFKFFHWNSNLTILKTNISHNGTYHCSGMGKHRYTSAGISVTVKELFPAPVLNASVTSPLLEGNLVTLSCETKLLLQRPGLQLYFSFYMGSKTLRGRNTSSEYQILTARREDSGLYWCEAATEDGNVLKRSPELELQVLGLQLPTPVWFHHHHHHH

Binder | ratio to native IgG1
B1 | 1.04 ratio
B2 | 0.96 ratio
B3 | 1.01 ratio
B4 | 0.93 ratio
B5 | 0.93 ratio
B6 | 0.6 ratio
B7 | 1.05 ratio
B8 | 0.88 ratio
B9 | 1.11 ratio
B10 | 0.61 ratio
B11 | 0.81 ratio
B12 | 1.06 ratio
B13 | 1.03 ratio
B14 | 1.05 ratio
B15 | 1.01 ratio
B16 | 0.9 ratio
B17 | 1 ratio
B18 | 0.98 ratio
B19 | 0.92 ratio
B20 | 0.96 ratio
B21 | 1.17 ratio
B22 | 1.18 ratio
B23 | 1.09 ratio
B24 | 1 ratio
B25 | 1.02 ratio
B26 | 1.06 ratio
B27 | 0.98 ratio
B28 | 1 ratio
B29 | 1.09 ratio
